Assay [1] concerns the target human IgG from serum (human) [IgG part: P01857]. The assay is described as follows: SPR; preparation #2. Background: SPR reads the build-up and loss of mass on a sensor chip optically.
Assay [2] has the same target. Briefly: SPR; preparation #1.
Assay [3] has the same target. Briefly: SPR.

The values that follow come from paper PMC10078426.

“protein G: β-galactosidase fusion protein (from UniProt P19909)”: the figures for the Kd in assay [1] and in assay [2] were 41.8 nM and 33.4 nM, respectively.

As to protein G:HRP (from UniProt P19909), the Kd (commonly the free concentration of one partner at which half of the binding sites on the other are occupied at equilibrium, for simple one-to-one binding) in assay [3] is 18.9 nM.
